Experimental findings from US20090099029 are described below.

The chains are these.
T1: Bovine, dephosphorylated, Myelin Basic Protein (MBP), P02687
T1 chain: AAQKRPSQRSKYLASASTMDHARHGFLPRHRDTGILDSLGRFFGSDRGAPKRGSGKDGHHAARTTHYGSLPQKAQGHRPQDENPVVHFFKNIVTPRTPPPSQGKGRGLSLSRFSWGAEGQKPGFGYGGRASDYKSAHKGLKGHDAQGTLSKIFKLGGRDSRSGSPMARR

B1: TEC (protein)
chain: MNFNTILEEILIKRSQQKKKTSPLNYKERLFVLTKSMLTYYEGRAEKKYRKGFIDVSKIKCVEIVKNDDGVIPCQNKYPFQVVHDANTLYIFAPSPQSRDLWVKKLKEEIKNNNNIMIKYHPKFWTDGSYQCCRQTEKLAPGCEKYNLFESSIRKALPPAPETKKRRPPPPIPLEEEDNSEEIVVAMYDFQAAEGHDLRLERGQEYLILEKNDVHWWRARDKYGNEGYIPSNYVTGKKSNNLDQYEWYCRNMNRSKAEQLLRSEDKEGGFMVRDSSQPGLYTVSLYTKFGGEGSSGFRHYHIKETTTSPKKYYLAEKHAFGSIPEIIEYHKHNAAGLVTRLRYPVSVKGKNAPTTAGFSYEKWEINPSELTFMRELGSGLFGVVRLGKWRAQYKVAIKAIREGAMCEEDFIEEAKVMMKLTHPKLVQLYGVCTQQKPIYIVTEFMERGCLLNFLRQRQGHFSRDVLLSMCQDVCEGMEYLERNSFIHRDLAARNCLVSEAGVVKVSDFGMARYVLDDQYTSSSGAKFPVKWCPPEVFNYSRFSSKSDVWSFGVLMWEVFTEGRMPFEKYTNYEVVTMVTRGHRLYQPKLASNYVYEVMLRCWQEKPEGRPSFEDLLRTIDELVECEETFGR
B2: MATK(HYL) (protein)
chain: MQGHFPAERREGRPRRGTRGQQQLLVSPRFLRAWHPPPVSARMPTRRWAPGTQCITKCEHTRPKPGELAFRKGDVVTILEACENKSWYRVKHHTSGQEGLLAAGALREREALSADPKLSLMPWFHGKISGQEAVQQLQPPEDGLFLVRESARHPGDYVLCVSFGRDVIHYRVLHRDGHLTIDEAVFFCNLMDMVEHYSKDKGAICTKLVRPKRKHGTKSAEEELARAGWLLNLQHLTLGAQIGEGEFGAVLQGEYLGQKVAVKNIKCDVTAQAFLDETAVMTKMQHENLVRLLGVILHQGLYIVMEHVSKGNLVNFLRTRGRALVNTAQLLQFSLHVAEGMEYLESKKLVHRDLAARNILVSEDLVAKVSDFGLAKAERKGLDSSRLPVKWTAPEALKHGKFTSKSDVWSFGVLLWEVFSYGRAPYPKMSLKEVSEAVEKGYRMEPPEGCPGPVHVLMSSCWEAEPARRPPFRKLAEKLARELRSAGAPASVSGQDADGSTSPRSQEP
B3: FES (protein)
chain: MGFSSELCSPQGHGVLQQMQEAELRLLEGMRKWMAQRVKSDREYAGLLHHMSLQDSGGQSRAISPDSPISQSWAEITSQTEGLSRLLRQHAEDLNSGPLSKLSLLIRERQQLRKTYSEQWQQLQQELTKTHSQDIEKLKSQYRALARDSAQAKRKYQEASKDKDRDKAKDKYVRSLWKLFAHHNRYVLGVRAAQLHHQHHHQLLLPGLLRSLQDLHEEMACILKEILQEYLEISSLVQDEVVAIHREMAAAAARIQPEAEYQGFLRQYGSAPDVPPCVTFDESLLEEGEPLEPGELQLNELTVESVQHTLTSVTDELAVATEMVFRRQEMVTQLQQELRNEEENTHPRERVQLLGKRQVLQEALQGLQVALCSQAKLQAQQELLQTKLEHLGPGEPPPVLLLQDDRHSTSSSEQEREGGRTPTLEILKSHISGIFRPKFSLPPPLQLIPEVQKPLHEQLWYHGAIPRAEVAELLVHSGDFLVRESQGKQEYVLSVLWDGLPRHFIIQSLDNLYRLEGEGFPSIPLLIDHLLSTQQPLTKKSGVVLHRAVPKDKWVLNHEDLVLGEQIGRGNFGEVFSGRLRADNTLVAVKSCRETLPPDLKAKFLQEARILKQYSHPNIVRLIGVCTQKQPIYIVMELVQGGDFLTFLRTEGARLRVKTLLQMVGDAAAGMEYLESKCCIHRDLAARNCLVTEKNVLKISDFGMSREEADGVYAASGGLRQVPVKWTAPEALNYGRYSSESDVWSFGILLWETFSLGASPYPNLSNQQTREFVEKGGRLPCPELCPDAVFRLMEQCWAYEPGQRPSFSTIYQELQSIRKRHR
B4: JAK3 (protein)
chain: ISSDYELLSDPTPGALAPRDGLWNGAQLYACQDPTIFEERHLKYISQLGKGNFGSVELCRYDPLGDNTGALVAVKQLQHSGPDQQRDFQREIQILKALHSDFIVKYRGVSYGPGRQSLRLVMEYLPSGCLRDFLQRHRARLDASRLLLYSSQICKGMEYLGSRRCVHRDLAARNILVESEAHVKIADFGLAKLLPLDKDYYVVREPGQSPIFWYAPESLSDNIFSRQSDVWSFGVVLYELFTYCDKSCSPSAEFLRMMGCERDVPALCRLLELLEEGQRLPAPPACPAEVHELMKLCWAPSPQDRPSFSALGPQLDMLWSGSRGCETHAFTAHPEGKHHSLSFS
B5: ZAP70 (protein)
chain: MPDPAAHLPFFYGSISRAEAEEHLKLAGMADGLFLLRQCLRSLGGYVLSLVHDVRFHHFPIERQLNGTYAIAGGKAHCGPAELCEFYSRDPDGLPCNLRKPCNRPSGLEPQPGVFDCLRDAMVRDYVRQTWKLEGEALEQAIISQAPQVEKLIATTAHERMPWYHSSLTREEAERKLYSGAQTDGKFLLRPRKEQGTYALSLIYGKTVYHYLISQDKAGKYCIPEGTKFDTLWQLVEYLKLKADGLIYCLKEACPNSSASNASGAAAPTLPAHPSTLTHPQRRIDTLNSDGYTPEPARITSPDKPRPMPMDTSVYESPYSDPEELKDKKLFLKRDNLLIADIELGCGNFGSVRQGVYRMRKKQIDVAIKVLKQGTEKADTEEMMREAQIMHQLDNPYIVRLIGVCQAEALMLVMEMAGGGPLHKFLVGKREEIPVSNVAELLHQVSMGMKYLEEKNFVHRDLAARNVLLVNRHYAKISDFGLSKALGADDSYYTARSAGKWPLKWYAPECINFRKFSSRSDVWSYGVTMWEALSYGQKPYKKMKGPEVMAFIEQGKRMECPPECPPELYALMSDCWIYKWEDRPDFLTVEQRMRACYYSLASKVEGPPGSTQKAEAACA
B6: LYNA (protein)
chain: MGCIKSKGKDSLSDDGVDLKTQPVRNTERTIYVRDPTSNKQQRPVPESQLLPGQRFQTKDPEEQGDIVVALYPYDGIHPDDLSFKKGEKMKVLEEHGEWWKAKSLLTKKEGFIPSNYVAKLNTLETEEWFFKDITRKDAERQLLAPGNSAGAFLIRESETLKGSFSLSVRDFDPVHGDVIKHYKIRSLDNGGYYISPRITFPCISDMIKHYQKQADGLCRRLEKACISPKPQKPWDKDAWEIPRESIKLVKRLGAGQFGEVWMGYYNNSTKVAVKTLKPGTMSVQAFLEEANLMKTLQHDKLVRLYAVVTREEPIYIITEYMAKGSLLDFLKSDEGGKVLLPKLIDFSAQIAEGMAYIERKNYIHRDLRAANVLVSESLMCKIADFGLARVIEDNEYTAREGAKFPIKWTAPEAINFGCFTIKSDVWSFGILLYEIVTYGKIPYPGRTNADVMTALSQGYRMPRVENCPDELYDIMKMCWKEKAEERPTFDYLQSVLDDFYTATEGQYQQQP
B7: EPHA1 (protein)
chain: RSRRAQRQRQQRQRDRATDVDREDKLWLKPYVDLQAYEDPAQGALDFTRELDPAWLMVDTVIGEGEFGEVYRGTLRLPSQDCKTVAIKTLKDTSPGGQWWNFLREATIMGQFSHPHILHLEGVVTKRKPIMIITEFMENGALDAFLREREDQLVPGQLVAMLQGIASGMNYLSNHNYVHRDLAARNILVNQNLCCKVSDFGLTRLLDDFDGTYETQGGKIPIRWTAPEAIAHRIFTTASDVWSFGIVMWEVLSFGDKPYGEMSNQEVMKSIEDGYRLPPPVDCPAPLYELMKNCWAYDRARRPHFQKLQAHLEQLLANPHSLRTIANFDPRMTLRLPSLSGSDGIPYRTVSEWLESIRMKRYILHFHSAGLDTMECVLELTAEDLTQMGITLPGHQKRILCSIQGFKD
B8: PTK2(FAK) (protein)
chain: MAAAYLDPNLNHTPNSSTKTHLGTGMERSPGAMERVLKVFHYFESNSEPTTWASIIRHGDATDVRGIIQKIVDSHKVKHVACYGFRLSHLRSEEVHWLHVDMGVSSVREKYELAHPPEEWKYELRIRYLPKGFLNQFTEDKPTLNFFYQQVKSDYMLEIADQVDQEIALKLGCLEIRRSYWEMRGNALEKKSNYEVLEKDVGLKRFFPKSLLDSVKAKTLRKLIQQTFRQFANLNREESILKFFEILSPVYRFDKECFKCALGSSWIISVELAIGPEEGISYLTDKGCNPTHLADFTQVQTIQYSNSEDKDRKGMLQLKIAGAPEPLTVTAPSLTIAENMADLIDGYCRLVNGTSQSFIIRPQKEGERALPSIPKLANSEKQGMRTHAVSVSETDDYAEIIDEEDTYTMPSTRDYEIQRERIELGRCIGEGQFGDVHQGIYMSPENPALAVAIKTCKNCTSDSVREKFLQEALTMRQFDHPHIVKLIGVITENPVWIIMELCTLGELRSFLQVRKYSLDLASLILYAYQLSTALAYLESKRFVHRDIAARNVLVSSNDCVKLGDFGLSRYMEDSTYYKASKGKLPIKWMAPESINFRRFTSASDVWMFGVCMWEILMHGVKPFQGVKNNDVIGRIENGERLPMPPNCPPTLYSLMTKCWAYDPSRRPRFTELKAQLSTILEEEKAQQEERMRMESRRQATVSWDSGGSDEAPPKPSRPGYPSPRSSEGFYPSPQHMVQTNHYQVSGYPGSHGITAMAGSIYPGQASLLDQTDSWNHRPQEIAMWQPNVEDSTVLDLRGIGQVLPTHLMEERLIRQQQEMEEDQRWLEKEERFLKPDVRLSRGSIDREDGSLQGPIGNQHIYQPVGKPDPAAPPKKPPRPGAPGHLGSLASLSSPADSYNEGVKLQPQEISPPPTANLDRSNDKVYENVTGLVKAVIEMSSKIQPAPPEEYVPMVKEVGLALRTLLATVDETIPLLPASTHREIEMAQKLLNSDLGELINKMKLAQQYVMTSLQQEYKKQMLTAAHALAVDAKNLLDVIDQARLKMLGQTRPH
B9: ADRBK1(GRK2) (protein)
chain: MADLEAVLADVSYLMAMEKSKATPAARASKKILLPEPSIRSVMQKYLEDRGEVTFEKIFSQKLGYLLFRDFCLNHLEEARPLVEFYEEIKKYEKLETEEERVARSREIFDSYIMKELLACSHPFSKSATEHVQGHLGKKQVPPDLFQPYIEEICQNLRGDVFQKFIESDKFTRFCQWKNVELNIHLTMNDFSVHRIIGRGGFGEVYGCRKADTGKMYAMKCLDKKRIKMKQGETLALNERIMLSLVSTGDCPFIVCMSYAFHTPDKLSFILDLMNGGDLHYHLSQHGVFSEADMRFYAAEIILGLEHMHNRFVVYRDLKPANILLDEHGHVRISDLGLACDFSKKKPHASVGTHGYMAPEVLQKGVAYDSSADWFSLGCMLFKLLRGHSPFRQHKTKDKHEIDRMTLTMAVELPDSFSPELRSLLEGLLQRDVNRRLGCLGRGAQEVKESPFFRSLDWQMVFLQKYPPPLIPPRGEVNAADAFDIGSFDEEDTKGIKLLDSDQELYRNFPLTISERWQQEVAETVFDTINAETDRLEARKKAKNKQLGHEEDYALGKDCIMHGYMSKMGNPFLTQWQRRYFYLFPNRLEWRGEGEAPQSLLTMEEIQSVEETQIKERKCLLLKIRGGKQFILQCDSDPELVQWKKELRDAYREAQQLVQRVPKMKNKPRSPVVELSKVPLVQRGSANGL

This data set concerns the target T1, Bovine, dephosphorylated, Myelin Basic ….
For B1, the “MBP Kinase Activity” value is on record as “Negative”.

Take B2: the “MBP Kinase Activity” value is given as “Negative”.

For the protein B3, the “MBP Kinase Activity” value was “Negative”.

For the protein B4, the “MBP Kinase Activity” value is reported as “Strong”.

Turning to B5, the “MBP Kinase Activity” value is “Negative”.

As for B6, the “MBP Kinase Activity” value is reported as “Weak”.

For the protein B7, the “MBP Kinase Activity” value was “Strong”.

Consider B8, for which the “MBP Kinase Activity” value is reported as “Negative”.

As to B9, the “MBP Kinase Activity” value is recorded as “Negative”.
